Experiment [1] has as its target shedded GPIbα or glycocalicin (UniProt P07359). The experiment is described as follows: biomembrane force probe (BFP), force-clamp assay; bead-bead mode; VWF-A1 on the probe bead, glycocalicin on the target bead; single bonds held at clamp forces of 10-70 pN; bond lifetime vs force; beads without treatment.
For experiment [2] the target is unchanged. Description: biomembrane force probe (BFP), adhesion frequency assay; bead-bead mode; VWF-A1 covalently linked to the probe bead, glycocalicin to the target bead; 20 pN impingement, 0.2 s contact; 200 approach-contact-retract cycles per probe-target pair, five pairs.
For experiment [3] the target is unchanged.

Consider “VWF-A1 with short N-AIM, high binder form, 1261^H-A1 (from UniProt P04275 1261-1472) (domain or fragment)”, for which the peak bond lifetime at 20-25 pN in experiment [1] worked out at 2.26 s. This substance returned an adhesion frequency (Pa) in experiment [2] of 0.13. In experiment [3], this substance returned a mean rolling velocity of washed human platelets (native GPIbα) on coated 1261^H-A1 at 800 s^-1 of 3.15 μm s^−1 and a tethered platelet density; washed human platelets (native GPIbα) perfused at 800 s^-1 for 30 s over coated 1261^H-A1, no treatment of 0.0053 μm^−2.

Values taken from PMC9175105.
